In article PMC7534470 (The Plant Cell, 2020):

Molecular target: T1, MBP-COP1 (Arabidopsis thaliana, UniProt P43254 1-675)
T1 sequence (looked up): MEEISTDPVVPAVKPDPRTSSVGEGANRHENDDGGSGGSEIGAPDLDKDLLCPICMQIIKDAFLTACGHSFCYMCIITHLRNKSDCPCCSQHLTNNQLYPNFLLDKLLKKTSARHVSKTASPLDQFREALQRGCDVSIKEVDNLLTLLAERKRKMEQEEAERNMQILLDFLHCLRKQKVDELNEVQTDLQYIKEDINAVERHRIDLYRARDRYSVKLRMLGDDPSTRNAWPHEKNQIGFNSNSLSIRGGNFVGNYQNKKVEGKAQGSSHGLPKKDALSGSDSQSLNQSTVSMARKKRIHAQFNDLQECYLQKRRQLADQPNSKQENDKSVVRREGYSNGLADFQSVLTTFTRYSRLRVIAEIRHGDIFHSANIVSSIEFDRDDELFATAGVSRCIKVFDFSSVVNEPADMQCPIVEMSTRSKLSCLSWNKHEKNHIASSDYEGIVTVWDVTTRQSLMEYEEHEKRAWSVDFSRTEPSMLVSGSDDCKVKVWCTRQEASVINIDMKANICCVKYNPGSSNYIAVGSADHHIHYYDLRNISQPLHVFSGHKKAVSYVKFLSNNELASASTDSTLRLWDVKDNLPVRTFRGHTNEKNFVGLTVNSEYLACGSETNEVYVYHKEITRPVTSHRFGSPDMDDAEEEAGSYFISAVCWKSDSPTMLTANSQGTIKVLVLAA
Experiment: pull-down

binding result: binds
B1: His-COR27 (natural protein, Arabidopsis thaliana, UniProt Q8L8T7 1-246, looked up)
chain: MVGDYRGRFSSRRFSDDSDDSSDDASSVEGETTSSMYSAGKEYMETEWTNEKHSLYLKSMEASFVDQLYNSLGALGKNENVSESTRFGSGRKPSQEQFKVLHDGFWQKINVKQPEHRINGRHGGNSHEFLRSPWIKHYKPLVKTQIPVTDEPENQVVSSSNGKKGICSSGSASSLKQLSSHSRDHDQISVGEAEVSDQNFVNEGIKGENGSSKKMKTVMMSESSSTDQVVPLNKLLQHDVNLKSVS
